# Patent publication US20260000710A1, “Novel Treatments for Cardiovascular Related Disease” (priority 2022, published 2026)
# Tested on: purified MHC molecules (28 common HLA DP, DQ and DR alleles)
# Experiment: HLA class II competition binding assay (inhibition of radiolabeled ligand binding)
# Set-up: species or system human
# Conditions: alleles bound at <1000 nM threshold
# Description: Peptides predicted to bind most (≥75%) of the alleles, were experimentally verified in HLA-II binding assays^31. For each peptide, the number of alleles that bound at a <1000 nM threshold level was tabulated. Top 20 promiscuous binders (bind >50% of reference alleles) were selected for further study (FIG. 9A, Table 2).
# Next, the capacity of these peptides to bind 28 common HLA alleles (27 from the reference set plus DPB1*03:01) was determined experimentally using classical competition assays based on the inhibition of binding of high affinity radiolabeled ligands to purified MHC molecules^3. Under the conditions utilized, where [radiolabeled peptide] is <[MHC], and [MHC]<[inhibitor peptide], the measured IC50 values, defined as the concentrations of inhibitor peptide that inhibits the binding of the radiolabeled ligand by 50%, are reasonable estimates of true Kd values.
row,Molecule,No. of HLA-II alleles bound
1,TLTAFGFASADLIEI [Peptide 2],21

# Tested on: PBMCs
# Experiment: IFNγ ELISpot after 14-day in vitro expansion and re-stimulation
# Assay type: cell-based, human
# Conditions: donor 1, HLA-DR alleles with strong binding affinities for the peptide
# Description: To do this, the inventors used the optimized IFNγ ELISpot assay (FIG. 1A) because Th1 cytokine response to APOB peptides is most robust (FIG. 9D) and easily detectable in high-throughput screens. PBMCs from HLA-typed donors (demographics and HLA-II alleles in Tables 5, 6) were incubated with the APOB20 pool for 14 days with intermittent IL-2 feeding (schematic in FIG. 11A). […] Restimulation with the APOB20 pool and with PHA-L served as positive controls, and unstimulated cells were negative controls. For each donor, APOB peptide-specific restimulation conditions were run in triplicate wells and the average number of spot-forming cells (SFCs) per 10^6 PBMCs was calculated. To determine responder frequencies, a positive response was defined based on established criteria set for detection of responses to other autoantigenic epitopes^4. (1) ≥100 spot-forming cells per 10^6 PBMCs; (2) stimulation index ≥2 (3) p≤0.01 by Student's t-test, mean response in stimulated vs unstimulated replicate wells.
# Expansion of antigen-specific T cells and Enzyme-linked immunospot (ELISpot) assay. For in vitro expansion, PBMCs were plated at a density of 2×10^6 cells/ml in 24-well plates and were cultured in the presence of APOB20 and CEFX-II peptide pools. […] Wells were imaged and spot-forming cells (SFCs) were quantified using the Zeiss KS or AID (Autoimmun Diagnostika) ELISpot readers. […]
row,Molecule,response with pan-HLA-DR blocking antibody
1,TLTAFGFASADLIEI [Peptide 2],inhibited responses

# Same assay, conditions: donor 2, DQ and DP binder alleles and DR non-binder alleles
row,Molecule,immunogenicity under HLA-DR blockade
1,TLTAFGFASADLIEI [Peptide 2],remained unaffected

# Molecular target: 28 common HLA alleles (27 from the reference set plus DPB1*03:01), purified MHC molecules
# Experiment: competition assay, inhibition of radiolabeled ligand binding to purified HLA class II; bound = IC50 <1000 nM
# Conditions: not given
row,Molecule,No. of HLA-II alleles bound [alleles]
1,QIHQYIMALREEYFD [APOB peptide 19 (…)],25
2,QLYSKFLLKAEPLAF [APOB peptide 8 (…)],27
3,KIVSLIKNLLVALKD [APOB peptide 20 (…)],20
4,ILFSYFQDLVITLPF [APOB peptide 17 (…)],17
5,TLTAFGFASADLIEI [APOB peptide 2 (…)],21
6,IKHIYAISSAALSAS [APOB peptide 6 (…)],20
7,KFTYLINYIQDEINT [APOB peptide 18 (…)],19
8,VGSKLIVAMSSWLQK [APOB peptide 5 (…)],21
9,FLHYIFMENAFELPT [APOB peptide 3 (…)],24
10,VEFVTNMGIIIPDFA [APOB peptide 4 (…)],18
11,LSQLQTYMIQFDQYI [APOB peptide 9 (…)],17
12,HFSNVFRSVMAPFTM [APOB peptide 7 (…)],22
